Measurements reported in patent US20240190960A1 (Chugai, published 2024).
Each block holds one binder with its values, some of them ahead of it.

What was measured:
[1] = biological target: T1, adenosine-binding antibody SMB0002hH-G1m3/SMB0002hL-k0a; assay: BLI (OctetHTX), target on streptavidin sensor, antibody 10 ug/mL, 30 C, with and without adenosine
T1 construct: also called biotinylated SMB0002hH-G1m3/SMB0002hL-k0
Experimental: Evaluation of the binding of each prepared and purified antibody to a complex of adenosine with an adenosine-binding antibody was performed using OctetHTX (ForteBio). Specifically, biotinylated SMB0002Fab prepared by the method described in Example 9, which was prepared with TBS or adenosine/TBS or SMB0002hH-G1m3/SMB0002hL-k0a biotinylated with EZ-Link Sulfo-NHS-SS-Biotin was bound to Dip and Read™ Streptavidin (SA) Biosensors (ForteBio). Subsequently, each purified antibody prepared at 10 μg/mL using TBS or adenosine/TBS was allowed to act, and the binding at 30° C. was evaluated.

[2] = biological target: CD3 antibody CE115HA056 (CE115HA056-F760mnP17/GLS3000-k0); assay: SPR (Biacore), 37 C; ligand antibody captured on SuRe protein A chip (1000 RU), Fab as analyte at 100 nM for 180 s; amount of binding per 1 RU of ligand
Chain of CD3 antibody CE115HA056 (CE115HA056-F760mnP17/GLS3000-k0) (heavy, as listed by the source, chain 1 of 2): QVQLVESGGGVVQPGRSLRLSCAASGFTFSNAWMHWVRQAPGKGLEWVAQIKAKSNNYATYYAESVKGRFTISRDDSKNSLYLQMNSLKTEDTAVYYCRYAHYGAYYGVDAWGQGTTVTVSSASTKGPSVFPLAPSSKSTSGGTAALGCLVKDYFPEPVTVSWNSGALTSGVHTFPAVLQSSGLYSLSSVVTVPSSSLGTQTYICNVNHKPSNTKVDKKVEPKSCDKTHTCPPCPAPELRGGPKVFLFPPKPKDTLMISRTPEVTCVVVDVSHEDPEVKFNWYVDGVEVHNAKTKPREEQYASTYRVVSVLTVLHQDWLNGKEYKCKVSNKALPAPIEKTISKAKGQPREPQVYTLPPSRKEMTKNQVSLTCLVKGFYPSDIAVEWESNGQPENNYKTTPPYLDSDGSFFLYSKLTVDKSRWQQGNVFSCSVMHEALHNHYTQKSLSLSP
Chain of CD3 antibody CE115HA056 (CE115HA056-F760mnP17/GLS3000-k0) (light, as listed by the source, chain 2 of 2): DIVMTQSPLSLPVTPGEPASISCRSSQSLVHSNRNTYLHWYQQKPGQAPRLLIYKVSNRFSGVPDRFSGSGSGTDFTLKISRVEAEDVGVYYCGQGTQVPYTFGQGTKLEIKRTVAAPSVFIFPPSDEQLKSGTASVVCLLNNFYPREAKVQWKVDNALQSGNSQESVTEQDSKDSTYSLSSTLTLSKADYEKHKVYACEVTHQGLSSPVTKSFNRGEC
Experimental: (§1) SuRe protein A (GE Healthcare) prepared at 25 μg/mL using Acetate4.5 (GE Healthcare) was immobilized on sensor chip CM4 at approximately 1000 RU per flow cell using an amine coupling kit (GE Healthcare).
(§2) First, to evaluate the binding specificity of the clamping antibodies, a ligand was reacted at 37° C. for 60 seconds at a flow rate of 10 μL/min to capture 1000 RU, and an analyte prepared at 100 nM was allowed to act for 180 seconds at a flow rate of 30 μL/min, and the amount of binding was measured.

[3] = biological target: CD3 antibody CE115HA000 (CE115HA000-F760mnP17/GLS3000-k0); assay: as above
Chain of CD3 antibody CE115HA000 (CE115HA000-F760mnP17/GLS3000-k0) (VH, as listed by the source, chain 1 of 2): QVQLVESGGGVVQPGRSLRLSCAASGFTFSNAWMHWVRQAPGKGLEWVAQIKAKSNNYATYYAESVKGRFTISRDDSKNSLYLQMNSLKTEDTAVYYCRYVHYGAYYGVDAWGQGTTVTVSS
Chain of CD3 antibody CE115HA000 (CE115HA000-F760mnP17/GLS3000-k0) (VL, as listed by the source, chain 2 of 2): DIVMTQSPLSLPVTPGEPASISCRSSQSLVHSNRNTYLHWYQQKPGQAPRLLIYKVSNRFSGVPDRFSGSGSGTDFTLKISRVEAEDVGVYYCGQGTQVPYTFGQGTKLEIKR
Experimental: as §1, §2

[4] = biological target: T2, negative control IC17 (IC17Hdk-F760mnP17/IC17L-k0); assay: as above
T2 construct: also called anti-KLH antibody
T2 sequence (VH, as listed by the source, chain 1 of 2): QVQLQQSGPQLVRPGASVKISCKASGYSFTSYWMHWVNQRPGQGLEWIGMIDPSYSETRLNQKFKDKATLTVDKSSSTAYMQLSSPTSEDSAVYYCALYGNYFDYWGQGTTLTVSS
T2 sequence (VL, as listed by the source, chain 2 of 2): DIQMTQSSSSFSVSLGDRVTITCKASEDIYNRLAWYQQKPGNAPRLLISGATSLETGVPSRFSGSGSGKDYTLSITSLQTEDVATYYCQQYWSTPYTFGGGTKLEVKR
Experimental: as §1, §2

[5] = biological target: T3, CD3ε epitope-fused GPC3 antibody (hGC33VHGP01-rabCH1hG1m/hGC33VL-rabk); assay: as above
T3 construct: control for recognition of the peptide alone
T3 sequence (VH, as listed by the source, chain 1 of 2): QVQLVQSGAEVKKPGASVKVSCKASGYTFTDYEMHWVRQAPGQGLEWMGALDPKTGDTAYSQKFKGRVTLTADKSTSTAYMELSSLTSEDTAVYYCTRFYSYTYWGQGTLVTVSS
T3 sequence (VL, as listed by the source, chain 2 of 2): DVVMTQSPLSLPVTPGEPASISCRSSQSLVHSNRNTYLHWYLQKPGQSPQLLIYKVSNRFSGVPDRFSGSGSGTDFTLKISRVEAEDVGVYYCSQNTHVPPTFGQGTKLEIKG
Experimental: as §1, §2

[6] = biological target: CD3 antibody CE115HA146 (CE115HA146-F760mnP17/GLS3000-k0); assay: as above
Chain of CD3 antibody CE115HA146 (CE115HA146-F760mnP17/GLS3000-k0) (heavy, as listed by the source, chain 1 of 2): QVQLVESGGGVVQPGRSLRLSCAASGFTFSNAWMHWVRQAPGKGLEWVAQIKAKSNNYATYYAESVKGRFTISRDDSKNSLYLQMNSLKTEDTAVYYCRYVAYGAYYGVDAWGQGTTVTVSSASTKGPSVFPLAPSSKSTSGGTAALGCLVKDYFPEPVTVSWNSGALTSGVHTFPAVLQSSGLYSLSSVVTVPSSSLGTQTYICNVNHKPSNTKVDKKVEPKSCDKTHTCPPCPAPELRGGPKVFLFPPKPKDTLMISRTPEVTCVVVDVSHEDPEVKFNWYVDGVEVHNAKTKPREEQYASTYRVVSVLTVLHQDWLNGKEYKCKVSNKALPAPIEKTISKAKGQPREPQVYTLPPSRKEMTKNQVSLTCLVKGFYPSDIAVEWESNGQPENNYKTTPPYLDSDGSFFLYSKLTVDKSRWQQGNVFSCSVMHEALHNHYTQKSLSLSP
Experimental: as §1, §2

[7] = biological target: T4, CD3ε epitope-fused CE115HA056 (CE115HAGP12-rabIgG/GLS3000-rabk); assay: SPR (Biacore T200), ligand captured on protein A, Fab 0-400 nM as analyte, 37 C
T4 construct: rabbit constant regions; also called CE115HAPG12
T4 sequence (heavy, as listed by the source, chain 1 of 2): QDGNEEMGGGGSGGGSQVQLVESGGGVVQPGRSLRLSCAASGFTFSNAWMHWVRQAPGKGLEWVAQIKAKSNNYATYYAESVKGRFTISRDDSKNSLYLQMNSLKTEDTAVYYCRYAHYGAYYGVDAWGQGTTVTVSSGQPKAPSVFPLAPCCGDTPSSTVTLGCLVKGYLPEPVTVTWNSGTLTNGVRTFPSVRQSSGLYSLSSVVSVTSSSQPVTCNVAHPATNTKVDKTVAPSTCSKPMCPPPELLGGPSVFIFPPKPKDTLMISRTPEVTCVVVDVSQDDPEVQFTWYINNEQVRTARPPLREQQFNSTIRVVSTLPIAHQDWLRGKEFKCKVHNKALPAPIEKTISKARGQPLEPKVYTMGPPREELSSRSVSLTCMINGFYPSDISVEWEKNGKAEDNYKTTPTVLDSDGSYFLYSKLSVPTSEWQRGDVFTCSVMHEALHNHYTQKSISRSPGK
T4 sequence (light, as listed by the source, chain 2 of 2): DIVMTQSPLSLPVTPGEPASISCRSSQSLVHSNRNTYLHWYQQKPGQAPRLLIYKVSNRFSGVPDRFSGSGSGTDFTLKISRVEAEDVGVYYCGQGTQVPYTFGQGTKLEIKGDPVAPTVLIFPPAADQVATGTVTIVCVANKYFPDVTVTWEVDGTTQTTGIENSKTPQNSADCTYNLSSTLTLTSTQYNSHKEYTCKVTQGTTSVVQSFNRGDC
Experimental: as §1
(§3) The sensor chip was regenerated by passing Glycine1.5 and 25 mM NaOH, each at a flow rate of 30 μL/min for 15 seconds. The dissociation constant KD (M) was calculated based on the association rate constant ka (1/Ms) and the dissociation rate constant kd (1/s), which are kinetic parameters calculated from the sensorgram obtained by the measurement. Biacore T200 Evaluation Software (GE Healthcare) was used for calculation of each parameter.

[8] = biological target: T5, CD3ε epitope-fused CE115HA146 (CE115HAGP13-rabIgG/GLS3000-rabk); assay: as above
T5 construct: stands for the antigen/antibody complex; Rabbit constant regions; also called CE115HAPG13
T5 sequence (heavy, as listed by the source, chain 1 of 2): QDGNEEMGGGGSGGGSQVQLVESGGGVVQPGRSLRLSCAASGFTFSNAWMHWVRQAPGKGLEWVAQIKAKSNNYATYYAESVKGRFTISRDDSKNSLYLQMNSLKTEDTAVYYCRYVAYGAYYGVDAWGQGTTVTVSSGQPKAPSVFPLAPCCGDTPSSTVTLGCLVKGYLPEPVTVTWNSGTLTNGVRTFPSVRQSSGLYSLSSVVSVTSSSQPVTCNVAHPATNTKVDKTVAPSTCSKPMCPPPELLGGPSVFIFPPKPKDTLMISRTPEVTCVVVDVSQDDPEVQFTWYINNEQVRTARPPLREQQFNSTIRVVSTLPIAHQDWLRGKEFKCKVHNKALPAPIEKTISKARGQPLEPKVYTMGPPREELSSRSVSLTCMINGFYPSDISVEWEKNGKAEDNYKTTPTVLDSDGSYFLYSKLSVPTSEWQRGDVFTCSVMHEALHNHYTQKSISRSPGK
Experimental: as §1, §3

T1 sequence (VH, as listed by the source, chain 1 of 2): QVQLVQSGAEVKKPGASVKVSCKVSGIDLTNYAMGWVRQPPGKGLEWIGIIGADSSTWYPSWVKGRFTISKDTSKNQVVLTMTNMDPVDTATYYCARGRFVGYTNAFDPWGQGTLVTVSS
T1 sequence (V domain, as listed by the source, chain 2 of 2): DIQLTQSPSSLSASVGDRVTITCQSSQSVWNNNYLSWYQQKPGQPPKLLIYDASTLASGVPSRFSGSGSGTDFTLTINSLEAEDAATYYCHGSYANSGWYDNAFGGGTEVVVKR

binding result [1]: binds
B1: SC044 (antibody, human IgG1, lambda, V domains shown)
VH: not shown
VL: QSVLTQPPSVSGAPGQRVTISCTGSSSNIGAGYDVHWYQQLPGTAPKLLIYGNSNRPSGVPDRFSGSKSGTSASLAITGLQAEDEADYYCQSYDDSRSAVVFGGGTKLTVLG
notes: also called adenosine-clamping antibody SC044

binding result [1]: binds
B2: SC045 (antibody, human IgG1, lambda, V domains shown)
VH: QVQLVESGGGLVQPGGSLRLSCAASGFTFSDHYMDWVRQAPGKGLEWVGRTRNKANSYTTEYAASVKGRFTISRDDSKNSLYLQMNSLKTEDTAVYYCARGPTLAYIGYMDYWGQGTLVTVSS
VL: QSVLTQPPSVSGAPGQRVTISCTGSSSNIGAGYDVHWYQQLPGTAPKLLIYGNSNRPSGVPDRFSGSKSGTSASLAITGLQAEDEADYYCQSYDGSLSVVVFGGGTKLTVLG
notes: also called adenosine-clamping antibody SC045

binding result [2]: no binding (tested: 100 nM)
binding result [3]: no binding (tested: 100 nM)
binding result [4]: no binding (tested: 100 nM)
binding result [5]: no binding (tested: 100 nM)
binding result [6]: no binding (tested: 100 nM)
Kd [7]: 14 nM
Kd [8]: 17 nM
B3: CLA0022 Fab fragment (from CLA0022VH-F760mnP17/CLA0022VL-k0C) (Fab, V domains shown)
VH: QSLEESGGDLVKPGASLTLTCTASGFSFSSSYWIYWVRQAPGKGLEWIACIYAGVNDITYYANWAKGRFTISKTSSTTVTLQMTSLTAADTATYFCAKGSPDDAFHSWGPGTLVTVSS
VL: DVVMTQTPASVSEPVGGTVTIKCQASQSIGNYLAWYQQKPGQPPKLLIYYASNLASGVSSRFKGSRSGTEFTLTINDLECADAATYYCQCAYYDSVYVTFGGGTEVVVKR
notes: Fab prepared from the full antibody with the Pierce Fab Preparation Kit; Rabbit-derived variable regions on human constant regions; also called clamping antibody CLA0022

binding result [2]: no binding (tested: 100 nM)
binding result [3]: no binding (tested: 100 nM)
binding result [4]: no binding (tested: 100 nM)
binding result [5]: no binding (tested: 100 nM)
binding result [6]: no binding (tested: 100 nM)
Kd [7]: 74 nM
Kd [8]: 78 nM
B4: CLA0028 Fab fragment (from CLA0028VH-F760mnP17/CLA0028VL-k0C) (Fab, V domains shown)
VH: QSLEESGGDLVKPGASLTLTCTASGFSFSSSYWIYWVRQAPGKGLEWIACIYAGSTSSTYYASWAKGRFTISKTSSTTVTLQMTSLTAADTATYFCAKGGPDDAFHSWGPGTLVTVSS
VL: DVVMTQTPASVSEPVGGTVTIKCQASQSIGNYLAWYQQKPGQPPKLLIYYASNLASGVSSRFKGSRSGTEFTLTISDLECADAATYYCQCAYYESSYVTFGGGTEVVVKR
notes: also called clamping antibody CLA0028

binding result [1]: binds
B5: SC019 (antibody, human IgG1, lambda, V domains shown)
VH: EVQLVESGGGLVKPGGSLRLSCAASGFTFSDYYMSWIRQAPGKGLEWVSYISSSGSTIYYADSVKGRFTISRDNAKNSLYLQMNSLRAEDTAVYYCARASPNVNEGAFDIWGQGTMVTVSS
VL: QSVLTQPPSMSAAPGQKVTISCSGSGSNIGSSYVSWYQQLPGKAPRLLIYDNNKQVSWVPDRFSGSKSGTSASLVISGLQTGDEADYYCGTWDRSLSAGVFGGGTKVTVLG
notes: also called adenosine-clamping antibody SC019

binding result [2]: no binding (tested: 100 nM)
binding result [3]: no binding (tested: 100 nM)
binding result [4]: no binding (tested: 100 nM)
binding result [5]: no binding (tested: 100 nM)
binding result [6]: no binding (tested: 100 nM)
B6: CLA0311 Fab fragment (from CLA0311VH-F760mnP17/CLA0311VL-k0C) (Fab, V domains shown)
VH: QSLEESGGGLVQPEGSLTLTCTASGFSLSSSYWICWVRQAPGKGLEWIGCIYTGSGGATHYASWAKGRFTISKTSSTTVTLQMTSLTAADTATYFCASAESGYYAGFFFAPWGPGTLVTVSS
VL: AFELTQTPSSVEAAVGGTVTIKCQASESIYSGLAWYKQKPGQPPKLLIYSASTLASGVSSRFKGSGSGTQFTLTISDLECADAATYYCQSYYGGSVTGYNTFGGGTEVVVKR
notes: Fab prepared from the full antibody with the Pierce Fab Preparation Kit; also called clamping antibody CLA0311

binding result [1]: binds
B7: SC048 (antibody, human IgG1, lambda, V domains shown)
VH: QVQLQESGGGVVQPGRSLRLSCAASGFTFSSYAMHWVRQAPGKGLEWVAVISYDGSNKYYADSVKGRFTISRDNSKNTLYLQMNSLRAEDTAVYYCAKGYSYGPGYFFDYWGQGTLVTVSS
VL: SSELTQPPSVSVSPGQTANISCSADKLGGKYVSWYQQKPGQSPVLVMYQDKKRPSGIPERLSGSGSGNTATLTISGTQAMDEATYYCQTWDGRSLFFGGGTRLTVLS
notes: also called adenosine-clamping antibody SC048

binding result [1]: binds
B8: SC034 (antibody, human IgG1, lambda, V domains shown)
VH: QVQLQQSGAEVKKPGASVKVSCKASGYTFTSYGISWVRQAPGQGLEWMGWISAYNGNTNYAQKLQGRVTMTTDTSTSTAYMELRSLRSDDTAVYYCARDYHSTRPDWPPFPYYYYYGMDVWGQGTTVTVSS
VL: QSVLTQPHSVSESPGKTVTISCTRSSGRIAANNVQWYQQRPGSAPTTIIYEDNRRPSGVPDRFSGSIDGSSNSASLTISGLKPEDEADYYCQSYVSTTVVFGGGTKLTVLG
notes: also called adenosine-clamping antibody SC034

binding result [1]: binds
B9: SC016 (antibody, human IgG1, lambda, V domains shown)
VH: EVQLVQSGGGLVQPGRSLRLSCAASGFTFDNHAMHWVRQAPGKGLEWVSRINWNSGGIDYADSVKGRFTISRDNAKNSLYLQMNSLRAEDTALYYCVKDRGSGWYDAFDLWGQGTMVTVSS
VL: SYELTQPPSVSVAPGQTTRIACGGDSVGSESVHWYQQRPGQAPVLVISYDSDRPSGIPERFSGSKSGNTATLTISRVEAGDEADYYCQVWNSASDHWVFGGGTKLTVLG
notes: also called adenosine-clamping antibody SC016

binding result [1]: binds
B10: SC003 (antibody, human IgG1, lambda, V domains shown)
VH: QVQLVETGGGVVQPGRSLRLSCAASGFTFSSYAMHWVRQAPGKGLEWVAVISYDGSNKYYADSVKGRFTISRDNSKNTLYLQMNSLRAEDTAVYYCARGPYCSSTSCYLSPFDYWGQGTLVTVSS
VL: QSVLTQPPSVSAAPGQKVTISCSGNTSNIGNNYVSWYQQLPGTAPKLLIYRNSDRPSGVPDRFSGSKSGTSASLAITGLQAEDEADYYCQSYDTSLTAVIFGGGTKLTVLG
notes: also called adenosine-clamping antibody SC003

binding result [1]: binds
B11: SC014 (antibody, human IgG1, lambda, V domains shown)
VH: EVQLVQSGGGLVQPGRSLRLSCAASGFTFDDYAMHWVRQAPGKGLEWVSGISWNSGSIGYADSVKGRFAISRDNAKNSLYLQMNSLRAEDTALYYCAKAWNDDAFDIWGQGTMVTVSS
VL: QSVVTQPPSVSGAPGQRVTVSCTGSNSNIGAGYDVHWYQQLPGTAPKLLIYGSNNRPSGVPDRFSASRSGTSASLAITGLQAEDEAEYYCQTYDTGLSGPGVVFGGGTKVTVLS
notes: also called adenosine-clamping antibody SC014

binding result [1]: binds
B12: SC032 (antibody, human IgG1, kappa, V domains shown)
VH: QVQLQQSGAEVKKPGSSVKVSCKASGGTFSSYAISWVRQAPGQGLEWMGRIIPILGIANYAQKFQGRVTITADKSTSTAYMELSSLRSEDTAVYYCAREGLTPYYYGSELGNGMDVWGQGTTVTVSS
VL: DIQLTQSPSSLSTFVGDRVTITCRTSQNINSYLNWYQQKPGKAPKLLISTTSNLQSGVPSRFSGSGSGTDFTLTINNLQPEDFAIYYCQQTKSFPLTFGGGTKLEIKR
notes: also called adenosine-clamping antibody SC032

binding result [1]: binds
B13: SC002 (antibody, human IgG1, lambda, V domains shown)
VH: EVQLVQSGAEVKKPGASVKVSCKASGYTFTSYGISWVRQAPGQGLEWMGWISAYNGNTNYAQKLQGRVTMTTDTSTSTAYMELRSLRSDDTAVYYCARVSSGSQPDPPYYYYYGMDVWGQGTMVTVSS
VL: QSVLTQPASVSGSPGQSITISCTGTSSNVESYNLVSWYQQHPGKAPKFIIYEGTRRPSGISNRFSGANSGNAASLTISGLQAEDEADYYCLSYVPSRRRHVFGTGTKVTVLS
notes: also called adenosine-clamping antibody SC002

binding result [1]: binds
B14: SC001 (antibody, human IgG1, lambda, V domains shown)
VH: QVQLVQSGGGVVQPGRSLRLSCAASGFTFSSYAMHWVRQAPGKGLEWVAVISYDGSNKYYADSVKGRFTISRDNSKNTLYLQMNSLRAEDTAVYYCARVYQGGATPYYYYGMDVWGQGTMVTVSS
VL: SYELTQPPSASGTPGQRVTVSCSGSTSNIGNHAVNWYQQLPGTAPKLLIYTNDQRPSGVPNRFSGSKSGISASLAISGLQSEDEADYYCSAWDDSLIGYVFGAGTKVTVLG
notes: also called adenosine-clamping antibody SC001
